# Measurements taken from patent US20190119346A1 (Stanford University, published 2019).
# T1: biotinylated IL-2Rβ ectodomain (C-terminal biotin acceptor peptide and hexahistidine tag) (human, UniProt P14784 27-240, C-terminally biotinylated (biotin acceptor peptide, BirA ligase))
# T1 construct: range 1-214; Staining reagent for yeast; also called tetrameric IL-2Rβ; monomeric IL-2Rβ
# T1 sequence: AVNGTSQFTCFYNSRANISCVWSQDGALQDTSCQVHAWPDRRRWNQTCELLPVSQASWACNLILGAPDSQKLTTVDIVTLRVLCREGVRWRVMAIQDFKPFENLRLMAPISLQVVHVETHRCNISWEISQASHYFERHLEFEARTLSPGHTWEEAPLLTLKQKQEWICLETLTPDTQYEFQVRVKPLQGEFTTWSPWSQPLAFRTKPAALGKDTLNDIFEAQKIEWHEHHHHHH
# T2: human IL-2Rβ ectodomain (amino acids 1-214), C-terminal hexahistidine tag (human, UniProt P14784 27-240)
# T2 construct: range 1-214; also called CD122; IL-2Rβ ECD
# T2 sequence: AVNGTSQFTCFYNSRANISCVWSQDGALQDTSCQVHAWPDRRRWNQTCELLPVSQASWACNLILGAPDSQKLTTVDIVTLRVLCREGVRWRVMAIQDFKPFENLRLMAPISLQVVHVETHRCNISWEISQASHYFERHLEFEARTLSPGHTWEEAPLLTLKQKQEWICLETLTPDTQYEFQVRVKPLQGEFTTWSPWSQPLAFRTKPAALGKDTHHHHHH
# Tests used:
# [1] = biological target: CD25 (IL-2Rα) on CD25+ YT-1 cells (human) (UniProt P01589); experiment: cell-based or functional assay
# Chain of CD25 (IL-2Rα) on CD25+ YT-1 cells (human) (P01589 22-272): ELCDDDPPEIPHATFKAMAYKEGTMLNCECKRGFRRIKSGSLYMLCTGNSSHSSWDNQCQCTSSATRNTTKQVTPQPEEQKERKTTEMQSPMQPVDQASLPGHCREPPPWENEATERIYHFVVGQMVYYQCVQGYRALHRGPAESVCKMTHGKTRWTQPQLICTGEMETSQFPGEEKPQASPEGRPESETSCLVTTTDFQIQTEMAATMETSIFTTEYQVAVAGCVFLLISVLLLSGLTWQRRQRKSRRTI
# [2] = biological target: T1, biotinylated IL-2Rβ ectodomain …; experiment: yeast clone screen: labeling with 5 nM IL-2Rβ and then SAV-PE
# Method: Selection of second generation IL-2 library: The library was subjected to five rounds of selection against IL-2Rβ (FIG. 2B). This selection method was performed exactly as with the first generation library, only with modifications to the concentrations of IL-2Rβ used (round 1—1 μM, round 2—100 nM, round 3—30 nM, round 4—30 nM, round 5—10 nM, all monomeric IL-2Rβ). Upon conclusion of selections, round four and round five yeast cultures were spread on SD-CAA plates, which yielded individual yeast colonies. 48 individual yeast clones from both rounds were grown in 96-well block format and screened by labeling with 5 nM IL-2Rβ and then SAV-PE.
# [3] = biological target: T2, human IL-2Rβ ectodomain (amino acids …); experiment: SPR
# Method: Dissociation was then tracked for 200 s. An irrelevant biotinylated protein was immobilized in the reference channel to subtract non-specific binding from the measurements. Experiments were carried out in HBS-P+ buffer (GE Healthcare) supplemented with 0.2% BSA at 25° C. All binding studies were performed at a flow rate of […] to minimize mass transport contributions and prevent rebinding of the analyte. For all measurements, data analysis and determination of equilibrium and kinetic parameters were implemented using the Biacore T100 evaluation software version 2.0 assuming a 1:1 Langmuir binding model.
# [4] = biological target: T2, human IL-2Rβ ectodomain (amino acids …); experiment: surface plasmon resonance
# [5] = biological target: T2, human IL-2Rβ ectodomain (amino acids …); experiment: SPR (Example 10), recombinant protein
# [6] = biological target: T2, human IL-2Rβ ectodomain (amino acids …); experiment: SPR affinities of D10 and wild-type IL-2, told with the structure
Molecule,binding result [2],koff [4] [s⁻¹],Kd [5] [nM],further results
IL-2 F42A (from UniProt P60568 21-153) (ligand),–,–,–,STAT5 phosphorylation dose response on CD25+ YT-1 cells [1]: 1 log
"yeast-displayed IL-2 clone G8 (ligand, Clone of the second generation yeast library; not shown: yeast display fusion partner and linker encoded by vector pCT302) APTSSSTKKTQLQLEHLLLDLQMILNGINNYKNPKLTRMLTFKFYMPKKATELKHLQCLEEELKPLEEVLNLANSKNFHFDPRDVVSNINVFVLELKGSETTFMCEYADETATIVEFLNRWITFCQSIISTLT",binds,–,–,–
"yeast-displayed IL-2 clone E10 (ligand, Clone of the second generation yeast library; not shown: yeast display fusion partner and linker encoded by vector pCT302) APTSSSTKKTQLQLEHLLLDLQMILNGINNYKNPKLTRMLTFKFYMPKKATELKHLQCLEEELKPLEEVLNLASSKNFHFDPRDVVSNINVFVLELKGSETTFMCEYADETATIVEFLNRWITFCQSIISTLT",binds,–,–,–
"H9-RET (H9 with L18R, Q22E and Q126T) (ligand) APTSSSTKKTQLQLEHLRLDLEMILNGINNYKNPKLTRMLTFKFYMPKKATELKHLQCLEEELKPLEEVLNLAQSKNFHFDPRDVVSNINVFVLELKGSETTFMCEYADETATIVEFLNRWITFCTSIISTLTHHHHHH",–,–,–,binding result [3]: binds
"IL-2 mutein H9 (ligand, also called super-IL-2; super-2) APTSSSTKKTQLQLEHLLLDLQMILNGINNYKNPKLTRMLTFKFYMPKKATELKHLQCLEEELKPLEEVLNLAQSKNFHFDPRDVVSNINVFVLELKGSETTFMCEYADETATIVEFLNRWITFCQSIISTLTHHHHHH",–,0.0056,1.3,Kd [4]: 1.4 nM; kon [4]: 4.1e+06 M⁻¹ s⁻¹
IL-2 mutein G8 (ligand) APTSSSTKKTQLQLEHLLLDLQMILNGINNYKNPKLTRMLTFKFYMPKKATELKHLQCLEEELKPLEEVLNLANSKNFHFDPRDVVSNINVFVLELKGSETTFMCEYADETATIVEFLNRWITFCQSIISTLTHHHHHH,–,0.0049,1.5,–
IL-2 mutein C5 (ligand) APTSSSTKKTQLQLEHLLLDLQMILNGINNYKNPKLTRMLTFKFYMPKKATELKHLQCLEEELKPLEEVLNLANSKNFHVTPRDVVSNINVFVLELKGSETTFMCEYADETATIVEFLNRWITFCQSIISTLTHHHHHH,–,0.016,10,–
"IL-2 mutein D10 (ligand, also called IL-2 D10; super-2) APTSSSTKKTQLQLEHLLLDLQMILNGINNYKNPKLTRMLTFKFYMPKKATELKHLQCLEEELKPLEEVLNLAHSKNFHFDPRDVVSNINVFVLELKGSETTFMCEYADETATIVEFLNRWITFCQSIISTLTHHHHHH",–,0.0051,1.2,Kd [4]: 1.3 nM; kon [4]: 4.1e+06 M⁻¹ s⁻¹; fold affinity gain [6]: ~300 fold
IL-2 mutein H4 (ligand) APTSSSTKKTQLQLEHLLLDLQMILNGINNYKNPKLTRMLTFKFYMPKKATELKHLQCLEEELKPLEEVLNLASSKNFHLTPRDVISNINVFVLELKGSETTFMCEYADETATIVEFLNRWITFCQSIISTLTHHHHHH,–,0.013,14,–
IL-2 mutein B1 (ligand) APTSSSTKKTQLQLEHLLLDLQMILNGINNYKNPKLTRMLTFKFYMPKKATELKHLQCLEEELKPLEEVLNLANSKNFHFDPRDVVSNVNVFVLELKGSETTFMCEYADETATIVEFLNRWITFCQSIISTLTHHHHHH,–,0.005,1.6,–
IL-2 mutein E10 (ligand) APTSSSTKKTQLQLEHLLLDLQMILNGINNYKNPKLTRMLTFKFYMPKKATELKHLQCLEEELKPLEEVLNLASSKNFHFDPRDVVSNINVFVLELKGSETTFMCEYADETATIVEFLNRWITFCQSIISTLTHHHHHH,–,0.0055,1.3,–

# Continued, in another order:
binding result [2],koff [4] [s⁻¹],Kd [5] [nM],Molecule,further results
binds,–,–,"yeast-displayed IL-2 clone B1 (ligand, Clone of the second generation yeast library; not shown: yeast display fusion partner and linker encoded by vector pCT302) APTSSSTKKTQLQLEHLLLDLQMILNGINNYKNPKLTRMLTFKFYMPKKATELKHLQCLEEELKPLEEVLNLANSKNFHFDPRDVVSNVNVFVLELKGSETTFMCEYADETATIVEFLNRWITFCQSIISTLT",–
binds,–,–,"yeast-displayed IL-2 clone C5 (ligand, Clone of the second generation yeast library; not shown: yeast display fusion partner and linker encoded by vector pCT302) APTSSSTKKTQLQLEHLLLDLQMILNGINNYKNPKLTRMLTFKFYMPKKATELKHLQCLEEELKPLEEVLNLANSKNFHVTPRDVVSNINVFVLELKGSETTFMCEYADETATIVEFLNRWITFCQSIISTLT",–
binds,–,–,"yeast-displayed IL-2 clone H9 (ligand, Clone of the second generation yeast library; not shown: yeast display fusion partner and linker encoded by vector pCT302) APTSSSTKKTQLQLEHLLLDLQMILNGINNYKNPKLTRMLTFKFYMPKKATELKHLQCLEEELKPLEEVLNLAQSKNFHFDPRDVVSNINVFVLELKGSETTFMCEYADETATIVEFLNRWITFCQSIISTLT",–
binds,–,–,"yeast-displayed IL-2 clone H4 (ligand, Clone of the second generation yeast library; not shown: yeast display fusion partner and linker encoded by vector pCT302) APTSSSTKKTQLQLEHLLLDLQMILNGINNYKNPKLTRMLTFKFYMPKKATELKHLQCLEEELKPLEEVLNLASSKNFHLTPRDVISNINVFVLELKGSETTFMCEYADETATIVEFLNRWITFCQSIISTLT",–
binds,–,–,"yeast-displayed IL-2 clone D10 (ligand, Clone of the second generation yeast library; not shown: yeast display fusion partner and linker encoded by vector pCT302) APTSSSTKKTQLQLEHLLLDLQMILNGINNYKNPKLTRMLTFKFYMPKKATELKHLQCLEEELKPLEEVLNLAHSKNFHFDPRDVVSNINVFVLELKGSETTFMCEYADETATIVEFLNRWITFCQSIISTLT",–
